This note sets out measurements from publication PMC5240998, “Identification and Characterization of Single-Chain Antibodies that Specifically Bind GI Noroviruses” (PLoS ONE, 2017).

The target in the test is T1, GI.1 norovirus (Norwalk virus) virus-like particles (Norwalk virus (norovirus GI.1), UniProt Q83884 1-530).
T1 construct: major capsid protein VP1 (ORF2) of Norwalk virus, genotype GI.1, assembled into virus-like particles; also called GI.1 VLPs; GI.1 VLP; copies: 180
T1 sequence: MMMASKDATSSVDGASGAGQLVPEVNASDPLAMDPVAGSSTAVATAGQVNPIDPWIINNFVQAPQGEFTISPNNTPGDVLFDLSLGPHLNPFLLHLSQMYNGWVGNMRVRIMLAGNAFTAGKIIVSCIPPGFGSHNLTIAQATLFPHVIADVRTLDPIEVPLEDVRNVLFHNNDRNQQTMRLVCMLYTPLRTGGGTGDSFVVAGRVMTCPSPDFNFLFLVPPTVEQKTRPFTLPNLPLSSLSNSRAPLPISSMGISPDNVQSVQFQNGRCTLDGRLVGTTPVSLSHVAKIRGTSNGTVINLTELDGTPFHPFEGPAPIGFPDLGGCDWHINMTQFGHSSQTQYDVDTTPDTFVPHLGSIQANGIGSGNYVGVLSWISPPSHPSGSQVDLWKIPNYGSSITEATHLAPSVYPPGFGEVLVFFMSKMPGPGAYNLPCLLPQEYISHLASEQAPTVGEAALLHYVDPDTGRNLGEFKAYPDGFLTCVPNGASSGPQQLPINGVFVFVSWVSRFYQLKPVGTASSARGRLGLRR
The test can be described thus: ELISA; phage ELISA: VLPs, P-domain, S-domain (CT303) or BSA coated directly on the plate (VLPs 5 ug/mL in PBS); 5 × 10^10 cfu phage per well in 1% MPBS, 2 h RT; detected with anti-M13 HRP; signal as ratio to M13KE phage. The conditions noted are these: both partners purified.

B1: NV-N-R5-1 phage-displayed 12-mer peptide (peptide)
peptide: LPSWYLAYQKII
notes: source: first reported by Rogers et al [18]
In the case of B1, the binding result is “binds”.
